Article PMC5633918, “The coproporphyrin ferrochelatase of Staphylococcus aureus: mechanistic insights into a regulatory iron-binding site” (Biochemical Journal, 2017)

Substrate: CC1=C(CCC(=O)O)c2cc3nc(cc4[nH]c(cc5[nH]c(cc1n2)c(C)c5CCC(=O)O)c(CCC(=O)O)c4C)C(CCC(=O)O)=C3C
Assay: purified protein
Format: biochemical, Staphylococcus aureus
Details: 0.7 µM Fe2+ (sub-inhibitory), 0.1 M Tris-HCl pH 8.1, 0.5% sodium cholate, 0.5% Tween 20, 1 mM beta-mercaptoethanol, 30 °C

B1: S. aureus CpfC (coproporphyrin ferrochelatase) (Staphylococcus aureus subsp. aureus USA300) (protein)
chain: MTKKMGLLVMAYGTPYKESDIEPYYTDIRHGKRPSEEELQDLKDRYEFIGGLSPLAGTTDDQADALVSALNKAYADVEFKLYLGLKHISPFIEDAVEQMHNDGITEAITVVLAPHYSSFSVGSYDKRADEEAAKYGIQLTHVKHYYEQPKFIEYWTNKVNETLAQIPEEEHKDTVLVVSAHSLPKGLIEKNNDPYPQELEHTALLIKEQSNIEHIAIGWQSEGNTGTPWLGPDVQDLTRDLYEKHQYKNFIYTPVGFVCEHLEVLYDNDYECKVVCDDIGANYYRPKMPNTHPLFIGAIVDEIKSIF
notes: tag removal not mentioned
For B1, the Km was 1.5 ± 0.2 µM and the kcat was 0.175 ± 0.0067 s⁻¹.
